# B1: unnamed (parent)
# chain 1: HSQGTFTSDYSKYLDSRRAQDFVQWLMNTKRNRNNIA
# chain 2: RPQGATVSLWETVQKWREYRRQCQRSLTEDPPPATDLFCNRTFDEYACWPDGEPGSFVNVSCPWYLPWASSVPQGHVYRFCTAEGLWLQKDNSSLPWRDLSECEESKRGERSSPEEQLLFLYIIYTVGYALSFSALVIASAILLGFRHLHCTRNYIHLNLFASFILRALSVFIKDAALKWMYSTAAQQHQWDGLLSYQDSLSCRLVFLLMQYCVAANYYWLLVEGVYLYTLLAFSVLSEQWIFRLYVSIGWGVPLLFVVPWGIVKYLYEDEGCWTRNSNMNYWLIIRLPILFAIGVNFLIFVRVICIVVSKLKANLMCKTDIKCRLAKSTLTLIPLLGTHEVIFAFVMDEHARGTLRFIKLFTELSFTSFQGLMVAILYCFVNNEVQLEFRKSWERWRLEHLHIQRDSSMKPLKCPTSSLSSGATAGSSMYTATCQASCS
# Variants of: B1
# Test: radioligand inhibition binding (competition with 125I-exendin-4(9-39))
# Conditions: read off a plot
row,Variant,log10 ratio
1,chain 2 Q187A,-0.65 ΔpKi
2,chain 2 K179A,-0.85 ΔpKi
3,chain 2 Q198A,0.15 ΔpKi
4,chain 2 L178A,-0.9 ΔpKi
5,chain 2 Q188A,-0.05 ΔpKi
6,chain 2 L361A,-0.85 ΔpKi
7,chain 2 N279A,-1.4 ΔpKi
8,chain 2 S196A,0.1 ΔpKi
9,chain 2 L356A,-0.8 ΔpKi
10,chain 2 S278A,-0.35 ΔpKi
11,chain 2 L284A,-0.85 ΔpKi
12,chain 2 L195A,-0.5 ΔpKi
13,chain 2 S183A,0.1 ΔpKi
14,chain 2 H189A,0.2 ΔpKi
15,chain 2 T363A,-0.2 ΔpKi
16,chain 2 M181A,-1.5 ΔpKi
17,chain 2 V264A,-0.25 ΔpKi
18,chain 2 T275A,0.4 ΔpKi
19,chain 2 K360A,-0.9 ΔpKi
20,chain 2 W180A,-0.15 ΔpKi
21,chain 2 K265A,-1.4 ΔpKi
22,chain 2 Y268A,-0.45 ΔpKi

row,Variant,log10 ratio
1,chain 2 T355A,-0.55 ΔpKi
2,chain 2 Y282A,-1.9 ΔpKi
3,chain 2 L267A,-0.4 ΔpKi
4,chain 2 Q190A,0.1 ΔpKi
5,chain 2 W274A,-0.1 ΔpKi
6,chain 2 Y182A,-0.3 ΔpKi
7,chain 2 Y266A,0.1 ΔpKi
8,chain 2 I263A,-0.15 ΔpKi
9,chain 2 L194A,-0.15 ΔpKi
10,chain 2 H351A,-0.4 ΔpKi
11,chain 2 W191A,-0.15 ΔpKi
12,chain 2 I359A,0.05 ΔpKi
13,chain 2 N281A,-0.5 ΔpKi
14,chain 2 S200A,-0.35 ΔpKi
15,chain 2 R276A,-1.9 ΔpKi
16,chain 2 M280A,-0.8 ΔpKi
17,chain 2 R353A,-0.35 ΔpKi
18,chain 2 T184A,-0.05 ΔpKi
19,chain 2 N277A,-1.4 ΔpKi
20,chain 2 R357A,-0.55 ΔpKi
21,chain 2 Y197A,-0.3 ΔpKi

# — publication PMC4912689, “The Extracellular Surface of the GLP-1 Receptor Is a Molecular Trigger for Biased Agonism” (Cell, 2016)
